Reference: article PMC9599842 (2022)

Key:
HcAb.RR359.D107A = assay: BLI
HcAb.RR359.L110A = assay: BLI

B1: mEGFR-His recombinant protein (receptor)
chain: LEEKKVCQGTSNRLTQLGTFEDHFLSLQRMYNNCEVVLGNLEITYVQRNYDLSFLKTIQEVAGYVLIALNTVERIPLENLQIIRGNALYENTYALAILSNYGTNRTGLRELPMRNLQEILIGAVRFSNNPILCNMDTIQWRDIVQNVFMSNMSMDLQSHPSSCPKCDPSCPNGSCWGGGEENCQKLTKIICAQQCSHRCRGRSPSDCCHNQCAAGCTGPRESDCLVCQKFQDEATCKDTCPPLMLYNPTTYQMDVNPEGKYSFGATCVKKCPRNYVVTDHGSCVRACGPDYYEVEEDGIRKCKKCDGPCRKVCNGIGIGEFKDTLSINATNIKHFKYCTAISGDLHILPVAFKGDSFTRTPPLDPRELEILKTVKEITGFLLIQAWPDNWTDLHAFENLEIIRGRTKQHGQFSLAVVGLNITSLGLRSLKEISDGDVIISGNRNLCYANTINWKKLFGTPNQKTKIMNNRAEKDCKAVNHVCNPLCSSEGCWGPEPRDCVSCQNVSRGRECVEKCNILEGEPREFVENSECIQCHPECLPQAMNITCTGRGPDNCIQCAHYIDGPHCVKTCPAGIMGENNTLVWKYADANNVCHLCHANCTYGCAGPGLQGCEVWPSGPKIPS
koff (HcAb.RR359.D107A): 0.00135 s⁻¹ | koff (HcAb.RR359.L110A): 0.00425 s⁻¹
